Laboratory results as given in patent US20030059862A1 (Human Genome Sciences, published 2003).
One block for each binder: values may come before it.

B4: APRIL (Tumor Necrosis Factor Delta), human (ligand)
chain: AVLTQKQKKQHSVLHLVPINATSKDDSDVTEVMWQPALRRGRGLQAQGYGVRIQDAGVYLLYSQVLFQDVTFTMGQVVSREGQGRQETLFRCIRSMPSHPDRAYNSCYSAGVFHLHQGDILSVIIPRARAKLNLSPHGTFLGFVKL
notes: Soluble purified APRIL and FLAG-tagged APRIL were used in the selections; also called TNF-delta; human APRIL

Columns and labels:
biotinylated APRIL [1] = molecular target: T1, biotinylated APRIL (Homo sapiens (Human), UniProt O75888 105-250, biotinylated using NHS-biotin at a molar ratio of 20:1 biotin:APRIL); test: scFv inhibition of bio-APRIL (50 ng/ml) binding to coated TACI fusion protein, streptavidin-DELFIA; partial inhibition; unit cell reads 'nM (1)'
T1 construct: also called bio-APRIL
T1 sequence: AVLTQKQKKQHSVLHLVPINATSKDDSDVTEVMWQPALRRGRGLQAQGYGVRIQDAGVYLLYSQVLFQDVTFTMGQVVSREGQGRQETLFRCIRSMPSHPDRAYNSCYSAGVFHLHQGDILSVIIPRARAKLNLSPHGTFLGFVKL
Procedure: (§1) APRIL binds to BCMA with higher affinity than its binds to TACI so, inhibition of biotinylated APRIL (bio-APRIL) binding to BCMA can be used to screen selection outputs as periplasmic extracts for neutralizers and then assess potency of the positives as purified scFvs. To perform this assay, each well of a black 96 well flat-bottomed plate (Costar) was coated with 1.25 ng BCMA fusion protein overnight at 4° C. The wells were blocked with 3% milk in PBS for an hour at room temperature. ScFv were then added in the presence of 5 ng/ml biotinylated APRIL for 90 minutes at room temperature. Binding of biotinylated APRIL was detected via streptavidin Delfia (Wallac) added at a 1:1000 dilution in Delfia assay buffer (Wallac). After an hour at room temperature this was read on a Wallac 1420 workstation at 620 nm.
(§2) An assay similar to that described above can also be used to test if anti-APRIL antibodies of the invention are able to inhibit binding of bio-APRIL to TACI. In this case, the plate was coated with 2.5 ng TACI fusion protein per well and scFv were added in the presence of 50 ng/ml biotinylated APRIL instead of 5 ng/ml. Otherwise, the method was identical to that for the BCMA:bio-APRIL assay.

biotinylated APRIL [2] = molecular target: T1, biotinylated APRIL; test: scFv inhibition of bio-APRIL (5 ng/ml) binding to coated BCMA fusion protein, streptavidin-DELFIA; partial inhibition; unit cell reads 'nM (3)'
Procedure: as §1

[3] = molecular target: B4; test: Title of Table 1; scFv identified by phage display selection and phage ELISA (Example 1)
biotinylated APRIL [4] = molecular target: T1, biotinylated APRIL; test: scFv inhibition of bio-APRIL (5 ng/ml) binding to coated BCMA fusion protein, streptavidin-DELFIA
Procedure: as §1

biotinylated APRIL [5] = molecular target: T1, biotinylated APRIL; test: scFv inhibition of bio-APRIL (50 ng/ml) binding to coated TACI fusion protein, streptavidin-DELFIA
Procedure: as §1, §2

biotinylated APRIL [6] = molecular target: T1, biotinylated APRIL; test: receptor binding inhibition assay: scFv titrated with bio-APRIL (5 ng/ml); blocked binding of bio-APRIL to plate-coated BCMA fusion protein; streptavidin Delfia, fluorescence counts
Procedure: as §1

LIGHT = molecular target: T2, LIGHT (Homo sapiens (Human), UniProt O43557 83-240, limits assumed); test: Specificity phage ELISA (scFv on phage, anti-M13-HRP, A450)
T2 chain: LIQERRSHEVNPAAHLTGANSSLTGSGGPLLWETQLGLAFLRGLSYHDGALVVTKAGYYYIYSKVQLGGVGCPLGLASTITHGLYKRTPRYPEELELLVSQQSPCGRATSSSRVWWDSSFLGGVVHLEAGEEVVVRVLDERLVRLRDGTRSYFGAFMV
Procedure: (§3) Flexible 96-well plates (Falcon) were coated overnight at 4° C. with each antigen (1 μg/ml). All antigens were coated in PBS. After coating, the solutions were removed from the wells, and the plates were blocked for 1 hour at room temperature in MPBS. The plates were washed 3 times with PBS and then 50 μl of pre-blocked phage was added to each well. The plates were incubated at room temperature for 1 hour and then washed with 3 changes of PBST followed by 3 changes of PBS.
(§4) To each well, 50 μl of an anti-M13-HRP conjugate (Pharmacia) at a 1 in 5000 dilution in MPBS was added and the plates incubated at room temperature for 1 hour. Each plate was washed three times with PBST followed by three times with PBS.
(§5) Fifty μl of TMB substrate was then added to each well, and incubated at room temperature for 30 minutes or until color development. The reaction was stopped by the addition of 25 μl of 0.5 M H₂SO₄. The signal generated was measured by reading the absorbance at 450 nm (A₄₅₀) using a microtitre plate reader (Bio-Rad 3550).

BSA = molecular target: T3, BSA (UniProt P02769 25-607); test: as above
T3 construct: Unrelated control antigen coated at 1 µg/ml in the phage ELISAs
Procedure: as §3, §4, §5

TACI = molecular target: T4, TACI (Homo sapiens (Human), UniProt O14836 1-154, limits assumed); test: as above
T4 sequence: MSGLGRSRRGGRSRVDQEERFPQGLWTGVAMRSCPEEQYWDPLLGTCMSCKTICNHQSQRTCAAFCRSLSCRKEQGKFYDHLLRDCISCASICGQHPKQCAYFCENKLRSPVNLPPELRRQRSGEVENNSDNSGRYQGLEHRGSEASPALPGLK
Procedure: as §3, §4, §5

TNF-α = molecular target: T5, TNF-α (Homo sapiens (Human), UniProt P01375 77-233); test: as above
T5 construct: also called TNF-alpha
Procedure: as §3, §4, §5

BCMA = molecular target: T6, BCMA (Homo sapiens (Human), UniProt Q02223 1-48, limits assumed); test: as above
T6 chain: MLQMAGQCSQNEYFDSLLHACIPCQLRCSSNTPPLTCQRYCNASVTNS
Procedure: as §3, §4, §5

BLyS = molecular target: T7, BLyS (Homo sapiens (Human), UniProt Q9Y275 134-285); test: as above
T7 construct: also called Neutrokine-alpha
Procedure: as §3, §4, §5

biotinylated APRIL [7] = molecular target: T1, biotinylated APRIL; test: receptor binding inhibition assay: scFv titrated with bio-APRIL (50 ng/ml); blocked binding of bio-APRIL to plate-coated TACI fusion protein; streptavidin Delfia, fluorescence counts
Procedure: as §1, §2

BCMA fusion protein [8] = molecular target: T8, BCMA fusion protein (Homo sapiens (Human), UniProt Q02223 1-48); test: receptor binding inhibition assay: unlabelled APRIL titrated against bio-APRIL (5 ng/ml, the competitor) for binding to plate-coated BCMA fusion protein; streptavidin Delfia, fluorescence counts
T8 construct: also called immobilized receptor
T8 chain: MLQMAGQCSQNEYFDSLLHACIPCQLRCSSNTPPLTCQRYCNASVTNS
Procedure: as §1

TACI fusion protein [9] = molecular target: T9, TACI fusion protein (Homo sapiens (Human), UniProt O14836 1-154); test: receptor binding inhibition assay: unlabelled APRIL titrated against bio-APRIL (50 ng/ml, the competitor) for binding to plate-coated TACI fusion protein; streptavidin Delfia, fluorescence counts
T9 construct: also called immobilized receptor
T9 sequence: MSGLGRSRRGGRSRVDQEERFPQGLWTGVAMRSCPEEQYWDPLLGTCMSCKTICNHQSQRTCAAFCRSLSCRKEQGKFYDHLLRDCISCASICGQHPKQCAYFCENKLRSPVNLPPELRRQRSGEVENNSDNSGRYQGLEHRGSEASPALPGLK
Procedure: as §1, §2

BCMA fusion protein [10] = molecular target: T8, BCMA fusion protein; test: Unlabelled APRIL titrated against 5 ng/ml bio-APRIL for binding to coated BCMA fusion protein, streptavidin-DELFIA
Procedure: as §1

TACI fusion protein [11] = molecular target: T9, TACI fusion protein; test: Unlabelled APRIL titrated against 50 ng/ml bio-APRIL for binding to coated TACI fusion protein, streptavidin-DELFIA; inhibition was only partial
Procedure: as §1, §2

T3 sequence (P02769 25-607 limits assumed): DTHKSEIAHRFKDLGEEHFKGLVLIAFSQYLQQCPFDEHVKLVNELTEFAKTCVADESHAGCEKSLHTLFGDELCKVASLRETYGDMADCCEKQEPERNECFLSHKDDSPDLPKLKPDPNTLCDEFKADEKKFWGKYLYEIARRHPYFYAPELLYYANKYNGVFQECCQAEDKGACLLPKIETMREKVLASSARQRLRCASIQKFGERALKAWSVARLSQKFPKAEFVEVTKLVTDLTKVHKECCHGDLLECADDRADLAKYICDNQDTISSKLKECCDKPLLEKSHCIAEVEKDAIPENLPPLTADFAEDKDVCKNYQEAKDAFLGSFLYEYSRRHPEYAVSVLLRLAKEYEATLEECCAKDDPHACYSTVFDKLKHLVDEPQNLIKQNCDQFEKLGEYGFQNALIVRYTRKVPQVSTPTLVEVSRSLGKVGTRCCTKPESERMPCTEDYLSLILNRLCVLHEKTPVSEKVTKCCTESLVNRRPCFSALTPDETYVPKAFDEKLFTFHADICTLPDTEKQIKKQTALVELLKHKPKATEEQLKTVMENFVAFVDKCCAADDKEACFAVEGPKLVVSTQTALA
T5 sequence (P01375 77-233 limits assumed): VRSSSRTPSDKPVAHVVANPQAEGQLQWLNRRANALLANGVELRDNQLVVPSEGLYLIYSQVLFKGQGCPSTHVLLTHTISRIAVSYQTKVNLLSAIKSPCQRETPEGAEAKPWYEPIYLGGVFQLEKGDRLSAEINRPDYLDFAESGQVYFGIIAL

B2: A027H08 (scFv)
scFv: QVQLQQSGAEVKKPGSSVKVSCKASGGTFSSYAISWVRQTPGQGLEWMGGIIPIFGAANYAQKFQGRVTITADESTSTAHMELSSLRSEDTAVYYCARGISGGMDVWGKGTLVTVSSGGGSGGGGSGGGGSDIQMTQSPSTLSASIGDRVTITCRASEGIYHWLAWYQQKPGKAPKLLIYKASSLASGAPSRFSGSGSGTDFTLTISSLQPDDFATYYCQQYSNYPLTFGGGTKLEIKR
binding result [3]: binds

Binder: B4
IC50 (BCMA fusion protein [8]): 0.043 nM | IC50 (TACI fusion protein [9]): 0.165 nM | IC50 (BCMA fusion protein [10]): 0.048 nM | IC50 (TACI fusion protein [11]): 1.3 nM

More lines, main results first:

IC50 (biotinylated APRIL [1]): 4 nM | IC50 (biotinylated APRIL [2]): 19 nM
B1: A024G01 (scFv)
scFv: EVQLVQSGAEVKKPGSSVKVSCKASGGTLSSDSITWVRQAPGQGLEWVGGLIPALGTANYAQKFQGRVTMTADRSTGTAYMELRSLKFDDTAVYYCARVSRTSYYDVLTDNNRYSYYMDVWGKGTLVTVSSGGGGSGGGGSGGGGSAHVILTQPPSVSVSPTQTATITCSGDHLGRKSLSWYQQKPGQSPVLVIYEDFKRPSGIPERFSASNSGYTATLTISGTQAMDEADYYCQAWDNRAVVFGGGTKLTVLG

IC50 (biotinylated APRIL [4]): 4.3 nM | IC50 (biotinylated APRIL [5]): 10 nM | IC50 (biotinylated APRIL [6]): 10 nM | IC50 (biotinylated APRIL [7]): 7 nM
B3: A019C11 (scFv)
scFv: EVQLVQSGAEVKKPGASVKVSCKTSGYTFTDNYMHWVRQAPGQGLEWMGWISPNSSTTLYAQKFRGRVTLTRDTSVSTAYMELSGLDSDDTALYFCARGGRLAGSTVFTPAFEYWGRGTMVTVSSGGGGSGGGGSGGGGSAQAVLTQPSSVSEAPRQRVTISCSGSSSNIGNNAVKWYQQLPGKAPKLLIYYDDLLPSGVSDRFSGSKSGTSASLAISGLQSEDEADYYCAAWDDSLNGYVFGTGTKVTVLG
binding result (LIGHT): no binding (tested: antigen coated at 1 µg/ml) | binding result (BSA): no binding (tested: antigen coated at 1 µg/ml) | binding result (TACI): no binding (tested: antigen coated at 1 µg/ml) | binding result (TNF-α): no binding (tested: antigen coated at 1 µg/ml) | binding result (BCMA): no binding (tested: antigen coated at 1 µg/ml) | binding result (BLyS): no binding (tested: antigen coated at 1 µg/ml)
